One molecule from patent US20250018053A1 (published 2025) can be followed below.

In the experiment the target is -. The experiment is described as follows: kinetic binding (Ka/Kdis fit).

B1: Ch-15A7.5 (antibody, V domains shown)
VH: EVKLVESGGGLVQPGGSRKLSCAASGFTFSNYGMAWVRQAPGKGPEWVAFISNLAYGINYADTVTGRFTISRENAKNTLYLEMRSLRSEDTAMYYCARGARATGWFAYWGQGTLVTVSA
VL: DIVMTQSQKFMSTSIGDRVSVTCKASQNVDTHVAWYQEKPGQSPKALIYSASYRYSGVPDRFTGSGSGTDFTLTISNVQSEDLADYFCQQYNSYPLTFGGGTKLEIK
For B1, binding was characterised by a dissociation constant (Kd) of 45.9 nM.

Broadly, the Kd is the concentration at which binding is half-saturated. Read a high Kd as lower affinity.
